Patent US20240350583A1, “COMPOSITION FOR PREVENTING OR TREATING FIBROTIC DISEASES, COMPRISING HAPLN1” (Chung Ang University Industry Academic Cooperation …, priority 2021, published 2024)
Entries after “also recorded” stand apart in the source; their conditions may differ.

What was measured:
[1] = may vary from cell to cell; related literature; cited from earlier work
[2] = system: human kidney renal tubule cell (Human Kidney 2, HK-2); experiment: Anti-fibrotic efficacy in HK-2 cells (drug after TGFβ1), αSMA western blot; type: cell-based
Experimental: (1) Human kidney renal tubule cells (HK-2) were seeded (2.8×10^5 cells/well) in a […] according to the experimental scheme of FIG. 7A and incubated in RPMI 1640 Medium (11875-093, Gibco) including 10% FBS for 24 hours in an incubator at 37° C. 5% CO2.
(2) Afterwards, the plates were washed several times with PBS, and each well of the plate was treated with TGFβ1 (5 ng/ml) and incubated for 24 hours.
(3) Subsequently, the plates were then treated with the composition of the present disclosure (rhHAPLN1 protein content of 0, 5, 10, 20, and 50 ng/ml) and pirfenidone 0.2 mg/mL (200 μg/mL), respectively, and incubated for 48 hours.
(4) Each sample was then washed several times with ice-cold PBS, treated with radioimmunoprecipitation assay (RIPA) lysis and extraction buffer (Thermo Scientific) including protease and phosphatase inhibitors, scraped with a scraper, and transferred to an E-tube.
(5) By centrifugation (12000 rpm, 20 minutes, 4° C.), only the supernatant was obtained, and BCA assay was performed to obtain quantitative protein values.
(6) After quantification using the obtained quantitative value, cooking was performed at 100° C. for 3 minutes and then stored in a −20° C. refrigerator. […]
(§1) (11) After washing three times with TBST for 10 minutes each, the samples were detected by Chemidoc.

[3] = system: REMyOF system (renal proximal tubule epithelial cells and adult fibroblasts); experiment: BioMAP Fibrosis panel, REMyOF system (kidney fibrosis model), ELISA; type: cell-based
Description: The anti-fibrotic action effect of the composition of the present disclosure on pulmonary fibrosis and kidney fibrosis was verified by examining the expression level of various fibrosis markers using the BioMAP Fibrosis Panel (provided by Eurofins discovery).
BioMAP Fibrosis panel consists of three models, SAEMyoF system (co-culturing small airway epithelial cells and adult fibroblasts), REMyOF system (co-culture of renal proximal tubule epithelial cells and adult fibroblasts), and MyOF system (differentiated lung myofibroblasts). Here, the SAEMyoF system represents interstitial lung diseases (IDL), including pulmonary fibrotic diseases such as idiopathic pulmonary fibrosis (IPF), and the REMyOF system represents kidney fibrosis disease, which is associated with end-stage renal failure. However, experiments were conducted to confirm the effect of the MyoF system only on myofibroblasts.
(1) Each primary cell was used by pooling cells from multiple donors (n=3 to 6), and cells were first cultured in 96-well plates to confluence before adding a peripheral blood mononuclear cell (PBMC).
(2) Subsequently, the cells were then each treated with the composition of the present disclosure (rhHAPLN1 protein content of 0, 3.7, 11, and 33 ng/ml) at different concentrations and cultured for 1 hour.
(3) The plates were then treated with TNF and TGFβ1 and incubated for 48 hours.
(4) Direct enzyme-linked immunosorbent assay (ELISA) was performed on the expression levels of various biomarkers.
Each quantitative value was compared as a relative fold change compared to the vehicle control. Statistical processing was performed using unpaired t-test, significant differences vs vehicle control, *p<0.05, **p<0.01, and ***p<0.001.

[4] = system: human kidney renal tubule cell (Human Kidney 2, HK-2); experiment: Fibrosis prevention in HK-2 cells (simultaneous TGFβ1 and drug), αSMA western blot; type: cell-based; details: rhHAPLN1 50 ng/ml simultaneously with TGF-β (5 ng/ml), 24 hours
Experimental: (1) Human kidney renal tubule cells (HK-2) were seeded (1.0×10^5 cells/well) in a 6-well plate according to the experimental scheme of FIG. 6A and incubated in RPMI 1640 Medium (11875-093, Gibco) including 10% FBS for 24 hours in an incubator at 37° C. 5% CO2.
(2) The plates were then washed several times with PBS and each well of the plate was simultaneously treated with TGF31 (5 ng/ml) and the composition of the present disclosure (rhHAPLN1 protein content of 0, 5, 10, 20, and 50 ng/ml) and pirfenidone 0.2 mg/mL (200 μg/mL) and incubated for 24 hours.
(3) Each sample was then washed several times with ice-cold PBS, treated with radioimmunoprecipitation assay (RIPA) lysis and extraction buffer (Thermo Scientific) including protease and phosphatase inhibitors, scraped with a scraper, and transferred to an E-tube.
(4) By centrifugation (12000 rpm, 20 minutes, 4° C.), only the supernatant was obtained, and bicinchoninic acid (BCA) assay was performed to obtain quantitative protein values.
(5) After quantification using the obtained quantitative value, cooking was performed at 100° C. for 3 minutes and then stored in a −20° C. refrigerator.
(6) Using a 4% to 15% precast acrylamide PAGE gel, proteins were loaded at 10 μg per lane and run (80V-20 minutes, 120V-1 hour 30 minutes). […]
as §1

| Molecule | effective doses in cells [1] [µg/mL] | anti-fibrotic efficacy (αSMA) compared to pirfenidone 0.2 mg/ml ([2]; rhHAPLN1 50 ng/ml) | anti-fibrotic efficacy (αSMA) compared to composition that does not include rhHAPLN1 protein (FIG. 7B, FIG. 7C) ([2]; rhHAPLN1 10 to 50 ng/ml, 48 hours after 24 hours TGFβ1) | optimal concentration for anti-fibrotic efficacy in the kidney (assumed) ([3]; collagen I) [ng/mL] | expression level of collagen I, fold change compared to vehicle control (FIG. 11B) ([3]; regardless of rhHAPLN1 content (3.7, 11, 33 ng/ml)) [fold] | expression level of collagen I, fold change compared to vehicle control (FIG. 11B) ([3]; rhHAPLN1 11 ng/ml) [fold] | fibrosis prevention (αSMA) compared to pirfenidone at 200 μg/mL (FIG. 6B, FIG. 6C) [4] | fibrosis prevention efficacy (αSMA) compared to composition that does not include rhHAPLN1 protein (FIG. 6C) [4] |
| --- | --- | --- | --- | --- | --- | --- | --- | --- |
| Cc1ccc(=O)n(-c2ccccc2)c1 [pirfenidone, reference compound] | ≥ 100 | – | – | – | – | – | – | – |
| rhHAPLN1: recombinant human HAPLN1 protein of SEQ ID NO: 1 produced in CHO-K1 cells, stabilized in acetic acid buffer, sucrose, PS80, pH 5.0 (protein, listed as Homo sapiens) MKSLLLLVLISICWADHLSDNYTLDHDRAIHIQAENGPHLLVEAEQAKVFSHRGGNVTLPCKFYRDPTAFGSGIHKIRIKWTKLTSDYLKEVDVFVSMGYHKKTYGGYQGRVFLKGGSDSDASLVITDLTLEDYGRYKCEVIEGLEDDTVVVALDLQGVVFPYFPRLGRYNLNFHEAQQACLDQDAVIASFDQLYDAWRGGLDWCNAGWLSDGSVQYPITKPREPCGGQNTVPGVRNYGFWDKDKSRYDVFCFTSNFNGRFYYLIHPTKLTYDEAVQACLNDGAQIAKVGQIFAAWKILGYDRCDAGWLADGSVRYPISRPRRRCSPTEAAVRFVGFPDKKHKLYGVYCFRAYN | – | almost equivalent to that of pirfenidone | superior anti-fibrotic action; also recorded: excellent anti-fibrotic efficacy | 11 | ≤ 0.9 | ~0.7 | superior fibrosis prevention action compared to pirfenidone; also recorded: significantly higher | superior fibrosis prevention efficacy |
